# Patent US20250388889A1 (priority 2019, published 2025)
# Values joined by “and” are separate entries in the source; they are usually repeats but may differ in a detail not shown here. Identical values can stand only once. “Also recorded” adds a separate entry of the source. Marks after values point to notes of the source that are not given here.
# B1: Lon protease: Recombinant bacterial (E. coli) ATP-dependent serine peptidase Lon, commercially produced in E. coli K12 (protein, UniProt P0A9M0 2-784, looked up)
# Lon protease: NPERSERIEIPVLPLRDVVVYPHMVIPLFVGREKSIRCLEAAMDHDKKIMLVAQKEASTDEPGVNDLFTVGTVASILQMLKLPDGTVKVLVEGLQRARISALSDNGEHFSAKAEYLESPTIDEREQEVLVRTAISQFEGYIKLNKKIPPEVLTSLNSIDDPARLADTIAAHMPLKLADKQSVLEMSDVNERLEYLMAMMESEIDLLQVEKRIRNRVKKQMEKSQREYYLNEQMKAIQKELGEMDDAPDENEALKRKIDAAKMPKEAKEKAEAELQKLKMMSPMSAEATVVRGYIDWMVQVPWNARSKVKKDLRQAQEILDTDHYGLERVKDRILEYLAVQSRVNKIKGPILCLVGPPGVGKTSLGQSIAKATGRKYVRMALGGVRDEAEIRGHRRTYIGSMPGKLIQKMAKVGVKNPLFLLDEIDKMSSDMRGDPASALLEVLDPEQNVAFSDHYLEVDYDLSDVMFVATSNSMNIPAPLLDRMEVIRLSGYTEDEKLNIAKRHLLPKQIERNALKKGELTVDDSAIIGIIRYYTREAGVRGLEREISKLCRKAVKQLLLDKSLKHIEINGDNLHDYLGVQRFDYGRADNENRVGQVTGLAWTEVGGDLLTIETACVPGKGKLTYTGSLGEVMQESIQAALTVVRARAEKLGINPDFYEKRDIHVHVPEGATPKDGPSAGIAMCTALVSCLTGNPVRADVAMTGEITLRGQVLPIGGLKEKLLAAHRGGIKTVLIPFENKRDLEEIPDNVIADLDIHPVKRIEEVLTLALQNEPSGMQVVTAK
# Assays:
# [1] = system: A498 kidney epithelial cells; assay type: cell-based, human
# MB49 bladder tumors = details: mouse, in vivo
# c-MYC [2] = assay type: cell-based, human
# CK1α1 [3] = molecular target: CK1α1 (Homo sapiens, UniProt P48729)
# Description: Kidney epithelial cells were stained with rabbit anti-c-MYC (Abcam), rabbit anti-CK1α1 (Cell Signaling Technology), rabbit anti-c-MYB (Sigma Aldrich), rabbit anti-CEBPD (Abcam) or mouse anti-his6-tag primary antibodies (1:200 in 5% FBS/PBS, overnight at 4° C.), followed by secondary goat anti-rabbit Alexa Fluor 488-conjugated or goat-anti mouse Alexa Fluor 568-conjugated antibodies (Molecular Probes, A-11034) (1:200 in 5% FBS and 0.025% Triton X-100/PBS, 1 hour at room temperature). Cells were counterstained with DRAQ5 (Abcam) and examined using a LSM 510 META laser scanning confocal microscope (Carl Zeiss). Fluorescence signal was quantified in 50 cells per condition using Image J.
# Cells were lysed with NP-40 lysis buffer supplemented with protease and phosphatase inhibitors (Roche diagnostics). Proteins were run on SDS-PAGE (4-12% Bis-Tris gels, Invitrogen), blotted onto PVDF membranes (Biorad), blocked and stained with primary rabbit anti-c-MYC (1:1000, Abcam), rabbit anti-CK1α1 (1:1000, Cell Signaling Technology) or rabbit-anti-Lon (1:2000, Biorbyt) overnight at 4° C. Membranes were washed and stained with HRP-conjugated goat anti-rabbit HRP conjugated secondary antibodies (1:4000, Cell Signaling) washed again, imaged using ECL plus detection reagent (GE Healthcare) and quantified by ImageJ. β-actin was used as a loading control.
# CK1α1 [4] = assay type: cell-based, human
# c-MYC [5] = molecular target: T1, c-MYC (Homo sapiens, UniProt P01106); test: In vitro degradation assay of recombinant c-MYC by Lon protease; assay type: biochemical
# T1 construct: GST
# Description: […] Proteins were incubated at 37° C. for 60, 120 or 240 minutes and were denatured using 10 mM DTT in NuPAGE Sample Buffer at 100° C. for 5 minutes before further analysis.
# Samples were diluted with NuPAGE LDS sample buffer (Invitrogen) mixed with 10 mM dithiotreitol (DTT) and incubated at 56° C. for 20 min followed by addition of iodoacetamide (IAA) to a final concentration of 20 mM. Samples were loaded on 4-12% NuPAGE (Invitrogen). The electrophoresis was run in MOPS buffer. The gel was Coomassie stained and bands of interest were excised from the SDS-PAGE and trypsin digested, followed by identification using LC-MS/MS as per above. MS/MS spectra were investigated with PEAKS (version 10) against UniProt Human (released 2020 Feb. 21) where the sequence for GST-tag-MYC had been added. The precursor tolerance and fragment tolerance were set to 10 ppm and 0.05 Da, respectively. None enzyme was selected, methionine oxidation and deamidation of asparagine and glutamine were treated as dynamic modification and carbamidomethylation of cysteine as a fixed modification.
# MAX [6] = molecular target: T2, MAX (Homo sapiens, UniProt P61244); test: In vitro degradation assay, MAX; assay type: biochemical
# Description: (§1) 0.1 μg of recombinant proteins were incubated with 0.2 μg of Lon protease (Abcam, ab141921), or PBS, in a reaction buffer consisting of 20 mM MgCl2 in the presence of ATP (2 mM) in 50 mM Tris. pH 8.0. Proteins were incubated at 37° C. for 60, 120 or 240 minutes and were denatured using 10 mM DTT in NuPAGE Sample Buffer at 100° C. for 5 minutes before further analysis.
# AKT = assay type: biochemical
# CDK9 = CDK9 (Homo sapiens, UniProt P50750); test: In vitro degradation assay, CDK9; assay type: biochemical
# Description: as §1
# CBEB1 = CBEB1 (Homo sapiens, UniProt Q9BZB8); test: In vitro degradation assay, CPEB1; assay type: biochemical
# Description: as §1
# HH3 = assay type: biochemical
# Actin = assay type: biochemical
# GRP75 = GRP75 (Homo sapiens, UniProt P38646); test: In vitro degradation assay, GRP75; assay type: biochemical
# Description: as §1
# c-MYC [7] = molecular target: T1, c-MYC; assay type: binding
# MAX [8] = molecular target: T2, MAX; assay type: binding
# c-MYC [9] = assay type: cell-based, human; remark: listed apart in the source
# c-MYB = assay type: cell-based, human
# CEBP-δ = assay type: cell-based, human
# intestinal polyps = system: intestinal polyps; design: species or system C57BL/6J-APC^min/J mice; details: mouse, in vivo
# [10] = mouse, in vivo
# [11] = mouse, in vivo; remark: listed apart in the source
# T1 sequence (P01106 16-454): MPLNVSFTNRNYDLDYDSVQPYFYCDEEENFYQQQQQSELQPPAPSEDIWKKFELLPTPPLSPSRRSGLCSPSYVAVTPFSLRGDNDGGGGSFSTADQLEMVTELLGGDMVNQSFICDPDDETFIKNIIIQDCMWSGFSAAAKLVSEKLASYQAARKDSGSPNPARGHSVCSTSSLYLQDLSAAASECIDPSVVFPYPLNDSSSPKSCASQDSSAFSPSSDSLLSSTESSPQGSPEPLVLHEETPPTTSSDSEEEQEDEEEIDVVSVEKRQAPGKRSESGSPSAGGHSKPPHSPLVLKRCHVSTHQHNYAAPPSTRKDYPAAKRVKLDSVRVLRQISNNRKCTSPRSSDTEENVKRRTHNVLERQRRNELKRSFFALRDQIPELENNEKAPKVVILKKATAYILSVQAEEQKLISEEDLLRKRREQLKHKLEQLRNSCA
# Chain of CK1α1 (Homo sapiens, UniProt P48729) (P48729 whole entry): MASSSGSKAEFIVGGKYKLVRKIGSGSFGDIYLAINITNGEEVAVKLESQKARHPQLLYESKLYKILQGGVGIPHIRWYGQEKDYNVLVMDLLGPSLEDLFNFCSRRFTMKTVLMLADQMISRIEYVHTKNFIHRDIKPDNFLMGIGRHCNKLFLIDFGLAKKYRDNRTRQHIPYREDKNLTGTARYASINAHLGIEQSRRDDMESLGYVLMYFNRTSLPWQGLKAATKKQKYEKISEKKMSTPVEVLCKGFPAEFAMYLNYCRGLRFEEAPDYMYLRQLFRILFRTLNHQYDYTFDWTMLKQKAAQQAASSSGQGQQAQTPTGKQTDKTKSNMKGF
# T2 sequence (P61244 whole entry, species assumed): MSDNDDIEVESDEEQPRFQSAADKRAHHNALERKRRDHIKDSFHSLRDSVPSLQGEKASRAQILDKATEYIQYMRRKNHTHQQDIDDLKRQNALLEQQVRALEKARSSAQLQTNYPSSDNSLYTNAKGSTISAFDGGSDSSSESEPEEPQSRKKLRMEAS
# Chain of GRP75 (P38646 47-679, species assumed): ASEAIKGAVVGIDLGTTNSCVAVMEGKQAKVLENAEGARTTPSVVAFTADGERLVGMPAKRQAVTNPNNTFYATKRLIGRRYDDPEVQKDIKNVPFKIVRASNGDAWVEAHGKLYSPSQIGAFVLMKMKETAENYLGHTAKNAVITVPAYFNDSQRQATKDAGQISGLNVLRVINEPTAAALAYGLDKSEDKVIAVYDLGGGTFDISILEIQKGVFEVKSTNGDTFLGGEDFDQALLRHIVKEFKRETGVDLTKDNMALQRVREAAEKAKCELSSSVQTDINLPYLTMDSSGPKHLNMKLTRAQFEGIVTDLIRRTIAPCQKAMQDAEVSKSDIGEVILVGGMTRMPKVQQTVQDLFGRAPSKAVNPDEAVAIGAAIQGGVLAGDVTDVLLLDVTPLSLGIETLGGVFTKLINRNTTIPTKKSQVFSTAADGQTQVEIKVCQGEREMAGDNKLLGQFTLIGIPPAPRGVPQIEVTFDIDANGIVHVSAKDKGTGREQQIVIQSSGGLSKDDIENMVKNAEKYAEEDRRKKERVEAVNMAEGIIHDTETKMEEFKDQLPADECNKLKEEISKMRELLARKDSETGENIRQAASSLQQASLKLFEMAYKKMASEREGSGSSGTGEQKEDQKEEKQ
# Chain of CDK9 (P50750 whole entry, species assumed): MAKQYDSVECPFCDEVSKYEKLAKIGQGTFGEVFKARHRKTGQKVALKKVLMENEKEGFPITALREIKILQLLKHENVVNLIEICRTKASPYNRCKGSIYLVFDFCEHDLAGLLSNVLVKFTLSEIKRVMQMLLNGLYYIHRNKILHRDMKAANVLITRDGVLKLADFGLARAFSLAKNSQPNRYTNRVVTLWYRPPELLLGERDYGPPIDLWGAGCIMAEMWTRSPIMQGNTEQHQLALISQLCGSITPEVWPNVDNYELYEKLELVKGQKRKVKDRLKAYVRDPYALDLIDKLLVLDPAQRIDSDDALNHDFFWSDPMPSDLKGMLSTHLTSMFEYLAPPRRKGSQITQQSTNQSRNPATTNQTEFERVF
# Chain of CBEB1 (Q9BZB8 whole entry): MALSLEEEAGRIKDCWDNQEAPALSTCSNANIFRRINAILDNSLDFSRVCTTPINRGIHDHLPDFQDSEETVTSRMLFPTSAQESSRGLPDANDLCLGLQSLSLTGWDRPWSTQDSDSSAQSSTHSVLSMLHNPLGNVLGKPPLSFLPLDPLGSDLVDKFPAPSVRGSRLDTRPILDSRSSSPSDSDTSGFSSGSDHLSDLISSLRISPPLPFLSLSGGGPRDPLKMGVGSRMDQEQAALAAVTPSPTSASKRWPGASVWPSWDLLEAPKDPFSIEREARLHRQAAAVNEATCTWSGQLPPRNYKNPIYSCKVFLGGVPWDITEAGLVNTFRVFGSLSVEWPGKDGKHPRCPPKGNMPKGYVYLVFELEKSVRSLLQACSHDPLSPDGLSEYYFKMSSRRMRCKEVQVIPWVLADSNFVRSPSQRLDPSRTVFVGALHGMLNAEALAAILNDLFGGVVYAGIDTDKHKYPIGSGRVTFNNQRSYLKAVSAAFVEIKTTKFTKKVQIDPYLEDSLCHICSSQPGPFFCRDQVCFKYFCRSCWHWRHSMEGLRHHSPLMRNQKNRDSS
molecule,measurement,setting,value
O=c1c(O)c(-c2ccc(O)c(O)c2)oc2cc(O)cc(O)c12 [Quercetin],Lon protease staining and uptake after endocytosis inhibitor pre-treatment,[1],reduced Lon protease staining and uptake
"COc1cccc2c1C(=O)c1c(O)c3c(c(O)c1C2=O)C[C@@](O)(C(=O)CO)C[C@@H]3O[C@H]1C[C@H](N)[C@@H](O)[C@H](C)O1 [Epirubicin, reference compound]",Bladder size % Sham (range),MB49 bladder tumors,65 (53-70)^b % Sham
same,Bladder weight g^−1 (range),MB49 bladder tumors,3.9 (3.2-4.8)^b g^−1
[Cl-].[Cl-].[Zn+2] [ZnCl2],Effect of metal ion pretreatment of E. coli 536 on c-MYC inhibition,c-MYC [2],reversed c-MYC inhibition
same,Effect of treating the active E. coli 536 supernatant on MYC levels in host cells,c-MYC [2],did not affect MYC levels in host cells
O=C(N/N=C/c1ccc(O)c(O)c1)c1cc2ccccc2cc1O [Dynasore],Lon protease staining and uptake after endocytosis inhibitor pre-treatment,[1],reduced Lon protease staining and uptake
COc1cc(OC)c(C=C2C(O)=Nc3ccccc32)c(OC)c1 [IC261],Effect on c-MYC degradation in infected cells,"CK1α1 [3]; 100 μg/ml, 30 minutes pre-treatment, E. coli 536",reduced c-MYC degradation
same,Effect on c-MYB inhibition by E. coli 536,CK1α1 [3]; 30 minutes,reversed c-MYB inhibition
[Ca+2].[Cl-].[Cl-] [CaCl2],Effect of metal ion pretreatment of E. coli 536 on c-MYC inhibition,c-MYC [2],no effect
"CO[C@@]12[C@H](COC(N)=O)C3=C(C(=O)C(C)=C(N)C3=O)N1C[C@@H]1N[C@@H]12 [Mitomycin, reference compound]",Bladder size % Sham (range),MB49 bladder tumors,67 (54-87)^b % Sham
same,Bladder weight g^−1 (range),MB49 bladder tumors,4 (3.4-5.9)^b g^−1
[Cl][Mn][Cl] [MnCl2],Effect of metal ion pretreatment of E. coli 536 on c-MYC inhibition,c-MYC [2],no effect
"O=C(O)CN(CCOCCOCCN(CC(=O)O)CC(=O)O)CC(=O)O [EGTA, Egtazic acid]",Effect on CK1α1 activation,CK1α1 [4],inhibited the activation of CK1α1
[Cl-].[Cl-].[Mg+2] [MgCl2],Effect of metal ion pretreatment of E. coli 536 on c-MYC inhibition,c-MYC [2],no effect
B1,"c-MYC degradation, comparative analysis of protein degradation",c-MYC [5]; FIG. 17i,degraded after 3 hours
same,c-MYC remaining after Lon dependent degradation,"c-MYC [5]; Recombinant c-MYC (1 μg) with Lon protease (2 μg), 37° C., 0 to 4 hours, from 200 ng, n=3",79 ng
same,Number of specific c-MYC peptides found after rLon degradation (LC-MS/MS),c-MYC [5]; control sample 23 peptides,10
same,c-MYC sequence covered by specific peptides after rLon degradation (LC-MS/MS),c-MYC [5]; control sample 51%,23%
same,c-MYC degradation in vitro,"c-MYC [5]; recombinant c-MYC, kinetics","degrade recombinant c-MYC in vitro, in a time dependent manner"
same,Degradation of MAX in vitro,MAX [6],not detected
same,Degradation of AKT in vitro,AKT,not degraded
same,Degradation of CDK9 in vitro,CDK9,not degraded
same,Degradation of CBEB1 in vitro,CBEB1,not degraded
same,Degradation of HH3 in vitro,HH3,not degraded
same,Degradation of Actin in vitro,Actin,not degraded
same,Degradation of GRP75 in vitro,GRP75,not degraded
same,Binding to c-MYC by co-immunoprecipitation,c-MYC [7],verified; also recorded: dose-dependent
same,Pull-down of recombinant MAX,MAX [8],Weak pull-down
same,c-MYC staining in human kidney cells,c-MYC [9],dose-dependent decrease
same,c-MYB decrease compared to PBS,c-MYB,45%
same,CEBP-δ degradation,CEBP-δ,< 5%
same,Body weight at long-term follow up compared to sham,intestinal polyps,increase
same,Cancer gene networks as share of all regulated genes,intestinal polyps,93%
same,Day until which mice remained asymptomatic,intestinal polyps,175 days
same,Intestinal polyp number at long-term follow up compared to sham,intestinal polyps,significant reduction
same,MYC expression and MYC-dependent gene networks,intestinal polyps,inhibited
same,Polyp number compared to sham and pre-treatment samples,intestinal polyps,reduced the polyp number
same,Subset of colorectal cancer genes,intestinal polyps,54%
same,Survival (Kaplan Mayer plot),intestinal polyps,increased survival
same,Cytotoxic effects in human kidney cells,human kidney cells,not detected
same,Bladder size % Sham (range),MB49 bladder tumors,69 (53-85)^a % Sham
same,"Bladder size, weight and pathology compared to day 12",MB49 bladder tumors,remained unchanged
same,Bladder weight g^−1 (range),MB49 bladder tumors,5.3 (3.9-6.3)^a g^−1
same,Bladder weights and pathology scores versus sham,MB49 bladder tumors,remained lower than in the sham group
same,"Cancer gene networks as share of all regulated genes, compared to sham",MB49 bladder tumors,96.6%
same,Day until which mice remained asymptomatic,MB49 bladder tumors,27 days and 34 days
same,"Efficiency compared with E. coli 536 supernatant (tumor progression, gene expression)",MB49 bladder tumors,more efficient
same,"Expression of genes potentially involved in toxicity, compared with E. coli 536-treated mice",MB49 bladder tumors,less strongly expressed
same,Gene expression inhibited compared to the sham group,MB49 bladder tumors,95%
same,Mice with bladder tumors present,MB49 bladder tumors,15/15
same,Mice with hematuria,MB49 bladder tumors,3/15 and 2/12
same,Subset of bladder cancer related genes inhibited,MB49 bladder tumors,11.8%
same,Survival (Kaplan Meyer plot),MB49 bladder tumors,increased survival
same,Bladder weight and macroscopic appearance of the bladder,[10],No change
same,MYC expression in bladders,[10],not regulated
same,MYC-dependent genes activated,[10],33
same,MYC-dependent genes inhibited,[10],1
same,MYC-related genes activated,[11],1
same,MYC-related genes inhibited,[11],8
same,Body weight and macroscopic appearance of organs,[11]; po,No change
same,MYC expression in intestines,[11]; po,not regulated
